The record followed here is patent US20250340623A1 (AC IMMUNE, published 2025).

Broadly, the koff is a measure of how fast the partners let go of each other. Read a low koff as a long-lived complex. One may read the kon as the second-order rate constant of association. A high value points to faster complex formation. In general, Kd refers to a measure of binding affinity in units of concentration. Read a low Kd as higher affinity.

Assay [1] concerns the target T1, alpha-synuclein seeds (UniProt P37840 1-140). The assay is described as follows: cell-based or functional assay.
Assay [2] has as its target T2, alpha-synuclein fibrils (UniProt P37840 1-140). The assay can be described thus: SPR, captured bAb. Here is the method:
(§1) Binding affinity of alpha-synuclein biparatopic antibodies to monomeric or fibrillar alpha-synuclein species was performed using a single-cycle kinetics method. The instrument was primed with 1×HBS-P+ buffer (10× stock from GE Healthcare, BR-1003-52 diluted in Milli-Q water). Injections of monomeric alpha-synuclein (Boston Biochem, SP-485), increasing in concentration from 0.62-50 nM prepared from serial 2-fold dilutions, were performed with contact times of 300 sec/injection at a flow rate of 30 μL/min. A dissociation phase of 900 sec followed the final 50 nM injection. Regeneration of the sensor to the goat anti-human antibody layer was achieved using 3 regenerations of 10 mM Glycine pH 1.7. […] Regeneration of the sensor to the goat anti-mouse antibody layer was achieved using 3 regenerations of 10 mM Glycine pH 1.7. Results obtained from single-cycle kinetics were evaluated by Biacore 8K evaluation software with 1:1 binding homogenous Langmuir model with a preceeding buffer injection as a blank subtraction. The following kinetic parameters were obtained: on-rate (ka), off-rate (kd), affinity constant (KD, ratio of kd by ka), maximum response (Rmax), and goodness of fit (Chi2).
(In general: Surface plasmon resonance follows binding to a sensor surface in real time, without labels.)

Assay [3] deals with T3, monomeric alpha-synuclein (UniProt P37840 1-140). The assay can be described thus: SPR, captured bAb. Here is the method:
(§2) Any non-covalently bound antibodies were removed by three successive regenerations of 10 mM Glycine pH 1.7 (GE Healthcare, 28-9950-84). Immobilization levels were evaluated following ethanolamine capping (Bound) and finally following regeneration (Final). Non-covalent immobilization of alpha-synuclein biparatopic antibodies on flow cell 2 of channels 1-8 was performed at a final concentration of 5 μg/mL, diluted in 10 mM sodium acetate pH 5.5 (GE Healthcare, BR-1003-52). Non-covalent immobilization of an isotype control antibody on flow cell 1 of channels 1-8 was performed at a final concentration of 5 μg/mL, diluted in 10 mM sodium acetate pH 5.5 (GE Healthcare, BR-1003-52).
as §1
(§3) Kinetic constants were determined from 1:1 homogenous binding models for all cases.

Assay [4] has as its target T2, alpha-synuclein fibrils. The assay is described as follows: SPR, captured bAb. Here is the method:
as §2, §1, §3
This is another data set of the same source.

Assay [5] concerns the target T3, monomeric alpha-synuclein. The assay is described as follows: SPR, captured bAb; head says nM, kd/ka gives M. Here is the method: as §2, §1, §3
In assay [6] the target is T2, alpha-synuclein fibrils. The assay is described as follows: SPR, captured bAb; head says nM, kd/ka gives M. Here is the method: as §2, §1, §3
Assay [7] concerns the target T1, alpha-synuclein seeds. The assay is described as follows: cell-based or functional assay. This is another data set of the same source.
In the next assay the target is T4, 82-96aa.
T4 construct: also called alpha-synuclein peptide 82-96
T4 peptide: {Biotin-Ahx}-VEGAGSIAAATGFVK
The assay is described as follows: indirect ELISA on biotinylated 15-mer peptide. The method, then:
(§4) Serum-free supernatants were harvested from stable hybridomas. The supernatants containing antibodies of interest were then screened by an indirect ELISA assay to determine epitopes. Epitopes were first determined using a library of 15-mer peptides covering the entire sequence of human alpha-synuclein protein, spanning amino acids (aa) 1-140 with 9aa offset and […] overlap. […] Briefly, streptavidin-coated ELISA plates were blocked overnight at 4° C. […] Plates were washed with PBS/0.05% Tween®20 and then incubated with the hybridoma supernatants at 1/100 dilution for 1 hour at 25° C.

The target of a further assay is T5, 118-132aa.
T5 peptide: {Biotin-Ahx}-VDPDNEAYEMPSEEG
The assay is described as follows: indirect ELISA on biotinylated 15-mer peptide. The method, then:
as §4

For a further assay, the target named is T6, 127-140aa.
T6 peptide: {Biotin-Ahx}-MPSEEGYQDYEPEA
The assay can be described thus: indirect ELISA on biotinylated 15-mer peptide. Here is the method:
as §4
In general terms: An ELISA detects its analyte on a solid surface through an enzyme-linked reagent.

For the next assay, the target named is T7, 46-60aa.
T7 construct: also called alpha-synuclein peptide 46-60
T7 peptide: {Biotin-Ahx}-EGVVHGVATVAEKTK
The assay is described as follows: indirect ELISA on biotinylated 15-mer peptide. The method, then: as §4

The target of the next assay is T8, 64-78aa.
T8 construct: also called alpha-synuclein peptide 64-78
T8 peptide: {Biotin-Ahx}-TNVGGAVVTGVTAVA
The assay is described as follows: indirect ELISA on biotinylated 15-mer peptide, supernatant 1/100. Here is the method:
as §4

Numbering of substitutions follows the chain as printed. Where no end group is shown, it is not given here. The star is where a group is joined. Biotin = O=C1N[C@H]2[C@H](CS[C@H]2CCCCC(=O)*)N1; Ahx = NCCCCCC(=O)O

B1: Fab ACI-7067-1101C8-Ab2 (Fab, V domains shown)
VH: EVQLVESGGGLVQPKGSLKLSCAASGFSFNIYAMNWVRQAPGKGLEWVARIRSKSNNYATYYADSVKDRFTISRADSESMLYLQMNNLKTEDTAMYYCVRVGLRFYAMDYWGQGTSVTVSS
VL: DVLMTQTPLSLPVSLGDQASISCRSSQSIVHSNGNTYLEWYLQKPGQSPKLLIYKVSNRFSGVPDRFSGSGSGTDFTLKISRVEAEDLGVYYCFQGSQGPLTFGAGTKLELK
As to B1, the “aggregation half-time (τ1/2) of seeded alpha-synuclein aggregation, ThT; no antibody 18.0 hours” value (shortened to “aggregation half-time … no antibody 18.0 hours”) with alpha-synuclein seeds [1] worked out at 26.3 h.

B2: ACI-2503C6_1101C8 (bispecific antibody, V domains shown)
VH 1: DVQLQESGPGLVKPSQSLSLTCSVTGYSITSGYYWNWIRLFPGNKLEWLGYINYDGSNNFNPSLKNRISITRDTSKNQFFLKLNSVTSEDTATYFCLRGDWDWGQGTLVTVSA
VL 1: not shown
VH 2: B1 VH
VL 2: B1 VL
notes: biparatopic; Arm A ACI-7079-2503C6-Ab1, Arm B ACI-7067-1101C8-Ab2; engineered constant domains not specified
As for B2, the “fold slower dissociation rate (Kd) from fibrillar than from monomeric alpha-synuclein” value (“fold slower dissociation rate (Kd)” below) with alpha-synuclein fibrils [2] was at least 100 fold. Also, the results for the koff (in [3]; in the assay with alpha-synuclein fibrils [4]) were 0.00025 s⁻¹ and 1.53e-07 s⁻¹, respectively. For the same molecule, the results for the on-rate (kon) (in assay [3]; in the assay with alpha-synuclein fibrils [4]) were 220000 M⁻¹ s⁻¹ and 61600 M⁻¹ s⁻¹, respectively. Also, the Kd in [5] is 1.14 nM; with alpha-synuclein fibrils [6], 0.00248 nM.

B3: Fab ACI-7067-1108B11-Ab2 (Fab, V domains shown)
VH: EVQLVESGGGLVQPKGSLKLSCAASGFTFNTYAMHWVRQAPGKGLEWVARIRSKGSNYATNYADSVKDRFTISRDDSQSMLYLQMNNLKTEDTAMYYCVRGHGSSYFSYWGQGTLVTVSA
VL: QIVLTQSPAIMSASPGERITMTCSANSSVTYMHWYQQKSGTSPKRWIYDTSNLASGVPARFSGSGSGTSYSLTISSMEAEDAATYYCQQWKSHPPTFGAGTKLELK
Regarding B3, in the assay with alpha-synuclein seeds [1], the “aggregation half-time … no antibody 18.0 hours” value was determined as 22.3 h.

B4: Fab ACI-7067-1113D10-Ab1 (Fab, V domains shown)
VH: EVQLVESGGGLVQPKGSLKLSCAASGFTFNTYALHWVRQAPGKGLEWVARIRSKSSNYATYYADSVKDRFTISRDDSQSMLYLQMNNLKTEDTGMYYCVRGGVSPFDYWGQGTTLTVSS
VL: QIVLTQSPAIMSASPGEKVTMTCSASSSVSYMHWYQQKSGTSPKRWIYDTSKLASGVPARFSGSGSGTSYSLTISSMEAEDSATYYCQQWSNNPPTFGGGTKLEIK
For B4, the “aggregation half-time … no antibody 18.0 hours” value in the assay with alpha-synuclein seeds [1] came out at 21 h.

B5: ACI-1113D10_4317A4 (bispecific antibody, V domains shown)
VH 1: B4 VH
VL 1: B4 VL
VH 2: EVQLQQSGAELVRPGASVKLSCTASGFNIKDDYMHWVKQRPEQGLEWIGWIDPENGDTEYASKFQGKATMTADTSSNTAYLQLSSLTSEDTAVYYCKTWGTTQALFPYWGQGTLVTVSA
VL 2: DIVMTQSQKFMYTSVGDRVSITCKASQNVGNAVGWYQQKAGQSPKLLIHSASNRYTGVPDRFTGTGSGTDFTLTINNMQSEDLADYFCQQYRSYPLTFGAGTKLELK
notes: biparatopic; Arm A ACI-7067-1113D10-Ab1, Arm B ACI-7088-4317A4-Ab1; engineered constant domains not specified
For B5, in the assay with alpha-synuclein fibrils [2], the “fold slower dissociation rate (Kd)” value was at least 100 fold. The figures for the dissociation rate constant (koff) (in assay [3]; in the assay with alpha-synuclein fibrils [4]) were 0.000514 s⁻¹ and 3.48e-07 s⁻¹, respectively. Besides, the kon in assay [3] was determined as 1.23e+06 M⁻¹ s⁻¹; in the assay with alpha-synuclein fibrils [4] it was 56800 M⁻¹ s⁻¹. Further, the Kd in [5] stood at 0.416 nM; with alpha-synuclein fibrils [6] it was 0.00614 nM.

B6: ACI-5A12_3108C10 (bispecific antibody, V domains shown)
VH 1: QVHLKQSGADLVRPGASVKLSCKASGYTFTDYYINWVKQRPGQGLEWIARIYPGSGNTYYNEKFKGRATLSAEKSSTTAYMQLSSLTSEDSAVYFCVVGYYGAWGQGTTLTVSS
VL 1: DVVMTQTPLSLPVSLGDQASISCRSSQSLVHSNGKTHLHWYLQKPGQSPKLLIYKVSNRFSGVPDRFSGSGSGTDFTLKISRVEAEDLGVYFCSQSTHVPWTFGGGTKLEIK
VH 2: ELQLVESGGGLVRPGGSLKLSCATSGFTFRNYAMSWVRQTPAKRLEWVATISDGGTYTFYSDNVKGRFTISRDNVKNTLYLQMSHLKSEDTAMYYCSRAGSGHWGQGTTLTVSS
VL 2: not shown
notes: biparatopic; Arm A ACI-8033-5A12-Ab1, Arm B ACI-7079-3108C10-Ab2; engineered constant domains not specified
Turning to B6, the “fold slower dissociation rate (Kd)” value with alpha-synuclein fibrils [2] is at least 100 fold. The results for the koff (in assay [3]; with alpha-synuclein fibrils [4]) were above 1 s⁻¹ and 9.19e-05 s⁻¹, respectively. The kon is above 2.9e+07 M⁻¹ s⁻¹ in assay [3] and 11200 M⁻¹ s⁻¹ with alpha-synuclein fibrils [4]. In the assay with alpha-synuclein seeds [7], the “IC50, percentage of de novo alpha-synuclein aggregates formed in cells after immunodepletion of seeds” value worked out at 22.7 nM. In addition, the figures for the Kd (in assay [5]; with alpha-synuclein fibrils [6]) were 34.5 nM and 8.21 nM, respectively.

B7: ACI-4F3_5A12 (bispecific antibody, V domains shown)
VH 1: EVQLQQSGPELVKPGASVKISCKASGYTFTDYYMNWVKQSHGKSLEWIGDINPNTGTNSYNQKFKGRASLTVDKFSSAAYMELRSLTSEDSAVYYCARTGYGDPISSYYYALDYWGQGTSVTVSS
VL 1: DIVMSQSPSSLAVSAGEKVTMSCKSSQSLLNSRTRKNYLAWYQQKPGQSPKLLIYWASTRESGVPDRFTGSGSGTDFTLTISSVQAEDLAVYYCKQSYNLWTFGGGTKLEIK
VH 2: B6 VH 1
VL 2: B6 VL 1
Turning to B7, the “IC50, percentage of de novo alpha-synuclein aggregates formed in cells after immunodepletion of seeds” value with alpha-synuclein seeds [7] was determined as 15.2 nM.

B8: ACI-7067-1102G3-Ab1 (antibody, V domains shown)
VH: EVKLEESGGGLVQPGGSMKLSCAASGFTFSDAWMNWVRQSPEKGLEWVAEIRNKAHNHATYYAESVKGRFTISGDDSKSSVYLQMNNLRAEDTGIYYCTIYSYWGQGTLVTVSA
VL: SIVMTQTPKFLLVSAGDRVTITCKASQSVTKDVAWYQQKPGQSPKLLIYSTSNRYSGVPDRFTGSGYGTDFTFTINTVQTEDLAVYFCQQDYRIPYTFGGGTKLEIK
notes: mouse hybridoma mAb; VH/VL only; also called 1102G3F2
In the case of B8, the binding result is “no binding (tested: supernatant 1/100)” with 82-96aa; “no binding (tested: supernatant 1/100)” with 118-132aa; “no binding (tested: supernatant 1/100)” with 127-140aa; “no binding (tested: supernatant 1/100)” in the assay with 46-60aa; “binds” with 64-78aa.

B9: Fab ACI-7067-1108H1-Ab1 (Fab, V domains shown)
VH: B8 VH with E5V, A23T, Y61N, Y103F
VL: B8 VL with K31N, D32Y, Q37H, T51A
Regarding B9, the “aggregation half-time … no antibody 18.0 hours” value with alpha-synuclein seeds [1] was 19.4 h.

B10: ACI-4F3_4317A4 (bispecific antibody, V domains shown)
VH 1: B7 VH 1
VL 1: B7 VL 1
VH 2: B5 VH 2
VL 2: B5 VL 2
notes: biparatopic; Arm A ACI-8033-4F3-Ab1, Arm B ACI-7088-4317A4-Ab1; engineered constant domains not specified
With B10, in the assay with alpha-synuclein fibrils [2], the “fold slower dissociation rate (Kd)” value is at least 100 fold. Also, the dissociation rate constant (koff) in [3] is 0.00103 s⁻¹; with alpha-synuclein fibrils [4], 7.84e-08 s⁻¹. Also, the kon in assay [3] is 884000 M⁻¹ s⁻¹; in the assay with alpha-synuclein fibrils [4], 51700 M⁻¹ s⁻¹. For the same molecule, the Kd in assay [5] is 1.17 nM; in the assay with alpha-synuclein fibrils [6], 0.00152 nM.
